B1: TPR 5TU (parent)
chain: GGAUCUUCUCGAUCUAACAAAAAAGACAAAUCUGCCACAAAGCUUGAGAGCAUCUUCGGAUGCAGAGGCGGCAGCCUUCGGUGGCGCGAUAGCGCCAACGUUCUCAACUAUGACACGCAAAACGCGUGCUCCGUUGAAUGGAGUUUAUCAUG

Variants at the floor of the assay were thinned out. Bounds are passed on as bounds.

The source of these data is the RNAGym collection of RNA variant scans (doi:10.1073/pnas.2313332121).

Variants of B1 are the subject of this data set. The data set can be described thus: polymerase ribozyme fitness, log enrichment relative to wild type (log ratio); higher = more active; in vitro selection for triplet polymerase activity. The procedure, abridged:
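A single round of triplicate in vitro selection, including frozen incubation at −7 °C, was applied to PCR-built, transcribed mutant libraries of each subunit of a heterodimeric triplet polymerase ribozyme. Illumina sequencing of input and output libraries retained genotypes with ≥10 input reads and ≥1 read per output. Fitness is the base-2 logarithm of genotype enrichment divided by wild-type enrichment, from inverse-variance-weighted replicate averages.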
Take GGAUCUUCUCGAUCUAACAAAAAAGACAAAUCUGCCACAAAGCUUGAGAGCAUCUUCGGAUGCAGAGGCGGCAGCCUUCGGUGGAGCGAUAGCGCCAGCGUUCUCAACUAUGACAUGCACAACGCGUGCUCCGUUGAAUGGAGUUUUUCAUG: the “polymerase ribozyme fitness (log ratio)” value worked out at 0.389.

Regarding GGAUCUUCUCGAUCUAACAAAAAAGACAAAUCUGCCACAAAGCUUGAGAGCAUCAUCAGAUGCAGAGGCGGCAGCCUUCGGUGGAGCGAUAGCGCCAACGUUCUCAACUAUGACACGCAAAACGCGUGCUUCGUUGAAUGGAGUUUAUCAUG, the “polymerase ribozyme fitness (log ratio)” value amounted to 0.931.

For GGAUCUUCUCGAUCUAACAAAAAAGACAAAUCUGCCACAAAGGUUGAGAGCAUCUUCGGAUGCAGAGGAGGCAGCCUUCGGUGGCGCGAUAGCGCCAACGUUCUCAACUAUGACACGCAAAACGCGUGCUCCGUUGAAUGGAGUUUAUCAUG, the “polymerase ribozyme fitness (log ratio)” value was not above -4.2.

For GGAUCUUCUCGAUCUAACAAAAAAGACAAAUCUGCCACAAAGCUUGAGAGCAUCUUCGGAUGCAGAGGGGGCAGCGUUCGGUGGCGCGAUAGCGCAAACGUUCUCAACUAUGACACGCAAAACGCGUGCUCCGUUGAGUGGAGUUUAUCAUG, the “polymerase ribozyme fitness (log ratio)” value is not above -4.2.

As to GGAUCUUCUCGAUCUAACAAAAAAGACAAAUCUGCCACAAAGCUUGAGAGCAUCUUCGGAUGCAGAGGCGGCAGCCUUCGGUGUCGCGAUAGCACAAACGUUCUCAACUAUGACACGCAAAACGCGUGCUCCGUUGAAUGGAGUUUAUCAUG, the “polymerase ribozyme fitness (log ratio)” value was -3.87.

Regarding GGAUCUUCUCGAUCUGACGAAAAAGACAAAUCUGCCACAAAGCUUGAGAGCAUCUUCGGAUGCAGAGGCGGCAGCCUUCGGUGUCGCGAUAGCGCCAACGUUCUCAACUAUGACACGCAAAUCGCGUGCUCCGUUGAAUGGAGUUUAUCAUG, the “polymerase ribozyme fitness (log ratio)” value is -3.73.

On to GGAUCUUCUCGAUCUAACAAAAAAGACAAAUCUGCCACAAAGCUUGAGAGCAUCUUCGAAUGCAGAGGCGGCAGCCUUCGGUGGCGCGAUAGCGCCAACGUUCUCAACUAUGACACGCAAAACGCGUGCUCCGUUGAAUGGAGUUUAUAAUG, for which the “polymerase ribozyme fitness (log ratio)” value was -3.65.

GGAUCUUCUCGAUCUAACAAAAAAGACAAAUCUGCCACAAUGCUUGAGAGCAUCUUCGGAUGCAGAGCCGGCAGCCUUCGGUGGCGCGAUUGCGCCAACGUCCUCAACUAUGACACGCAAAACGCGUGCUCCGUUGAAUGGAGUUUAUCAUG: the “polymerase ribozyme fitness (log ratio)” value is not above -4.2.

GGAUCUUCUCGAUCUAACAAAAAAGACAAAUCUGCCAAAAAGCUUGAGAGCAUCUUCGGAUGCAGAGGCGGCAGCCUUCGGUGGCGAGAUAGCGCCAACGUUCUCAACUAUGACACGCAAAACGCGUGCUCCGUUGAAUGGAGUUUAUCAUG: the “polymerase ribozyme fitness (log ratio)” value was not above -4.2.

GGAUCUUCUCGAUCUAACAAAAAAGACAAAUCUGCCACAAAGCUUGAGAGCAUCUUCGGAUGCAGGGGCGGCAGCCUUCGGUGGCGCGAUAGCGCCAACGUUCUCAACUACGACACGCAAAACGCGUGCUCCGUUGAAUGGAGUUUAUCAUG: the “polymerase ribozyme fitness (log ratio)” value is not above -4.2.

As to GGAUCUUCUCGAUCUAACAACAAAGACAAAUCUUCCACAAAGCUUGAGAGCAUCUUCGGAAGCAGAGGCGGCAGCCUUCGGUGGCGUGAUAGCGCCAACGUUCUCAACUAUGACACGCAAAACGCGUGCUCCGGAGAAUGCAGUUUAUCAUG, the “polymerase ribozyme fitness (log ratio)” value is not above -4.2.

In the case of GGAUCUUCUGGAUCUAACAAAAAAGACAAAUCUGCCACAAAGCGUGAGCGCCUCUUCGGAUGCCGAGGCGGCACCCUUCGGUGGCGCGAUAGCGCCAACGUUCGCAACUAUGACACGCAAAGCGCGUGCUCCGUUGAAUGAAGUUUAUCAUG, the “polymerase ribozyme fitness (log ratio)” value is not above -4.2.

With GGAUCUUCUCGAUCUAACAAAAAAGACAAAUCUGCCACAAAGCUUGAGUGCAUCUUCGGAUGCAGAGGCGGCAGCCUUCGGUGGCGCGAUAGCGCCAACGUUCUCAACUAUGACACGCAAAACGCGUGCUCCGUUGAAUGGAGUUUAUCAUG, the “polymerase ribozyme fitness (log ratio)” value is -0.673.

GGAUCUUCUCGAUCUAACAAAAAAGACAAAUCUGCCACAAAGCUUGAGAGCAUCUUCAGAUGGAGAGGCGGCAGCCUUCGGUGGCUCGAUAGCCCCAACGUUCUCAACUAUGACACGCAAAACGCGUGCUCCGUUGCAUGUAGUUUAUCACG: the “polymerase ribozyme fitness (log ratio)” value is not above -4.2.

Turning to GGAUCUUCUCGAUCUAACAAAAAAGACAAAUCUGCCACAAAGCUUGAGAGCAUCUUCGGAUGCAGAGGCGGCAGCCUUCGGUGGCGCGAUAGGUACAACGUUCUCAACUAUGACACGCAAAACGCGUACUCCGUUGAAUGGAGUUUAUCAUG, the “polymerase ribozyme fitness (log ratio)” value was not above -4.2.

With GGAUCUUCUCGAUCUGACAAAAAAGACAAUUCUGCCACAAAGCUUGAGAGCAUCUUCGGAUGCAGAGGCGGCAGCCUUCGGUGGCGCGAGAGCGCCAACGUUCUCAACUAUGACACGCAAAACGCGUGCUCCGUUGAAUGGAGUUUAUCAUU, the “polymerase ribozyme fitness (log ratio)” value is not above -4.2.

With GGAUCUUCUCGAUCUAACAACAAAGACUAAUCUGCCACAAAGCUUGAGAGCAUCUUCGCAUGCAGAGGCGGCAGCCUUCGGUGGCGCGAUAGCGCCGACGUUCUCAACUAUGACACGCAAAACGCGUGCUCCGCUGAAUGGAGUUUAUCAUG, the “polymerase ribozyme fitness (log ratio)” value was not above -4.2.

With GGAUCUUCUCGAUCUAACAAAAAAGACAAAUCUGCCACAAAGCUUGAGAGCAUCUGCGGAUGAAGAGGCGGCAGCCUUCGGUGGCGCGAUAGCGCCAACGUUCUCAACUAUGACACGCAGAACGCGUGCUCCGUUGAAUGGAGUUUAUCAUG, the “polymerase ribozyme fitness (log ratio)” value was -0.244.

With GGACCUUCUCUAUCUAACAAAAAAGACAAAUCUGCCACAAAGCUUGAGGGCAUCUUCGGAAGCAGAGGCGGCAGCCUUCCGUGGCGCGAUAGCGCCAGCGUUCUCAACUAUGACACGCAAAACGCGUGCUCCGUUGAAUGAAGUUUAUCAUG, the “polymerase ribozyme fitness (log ratio)” value is not above -4.2.

Turning to GGAUCUUCUCGAGGUAACAAAAAAGACAAAUCUGCCACAAAGCUUGAGAGCAUCUUAGGAUGCAGAGGCGACAGCCUUCGGUGGCGCGAUAGCGCCAACGGUCUCAACUAUGACACGCAAAACACGUGCUCCGUUGAAUGAAGUUUAUCAUG, the “polymerase ribozyme fitness (log ratio)” value was not above -4.2.
